Test results as given in the supplement of paper PMC9732359.
± gives the uncertainty stated by the source.

Experiment: protein stability index of a GFP-peptide fusion (yeast GPS) (PSI 1-4); higher = more stable; sorted into four equal gates, so the index is relative within each strain
In short: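 The protein stability index of a peptide was calculated by multiplying its read frequency in each gate by that gate's number and adding the products. The peptides were tiled 17-residue stretches of yeast proteins, fused downstream of GFP on a Cherry-expressing plasmid and carried in yeast as a pooled library. Mid-log cultures in leucine-free medium were sorted into four equal gates by GFP/Cherry ratio, and each gate's plasmids were PCR-amplified and Illumina-sequenced.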

Work on GHNDWVSQVRVVPNEKA [ASC1] yielded a protein stability index (doa10∆) of 2.3 ± 0.1, a protein stability index (pdr5∆) of 2.85 ± 0.076 and a protein stability index (san1∆) of 2.94 ± 0.066. The protein stability index (ubr1∆) was 2.69 ± 0.065.
Work on GIEYNRVTNTTSTDFPG [RPC40] yielded a protein stability index (doa10∆) of 3.33 ± 0.22, a protein stability index (pdr5∆) of 3.33 ± 0.14 and a protein stability index (san1∆) of 2.73 ± 0.082. For the same sequence, the protein stability index (ubr1∆) was 2.94 ± 0.096.
For GIHDGHIKKLLHQYYGD [FAS1], the protein stability index (doa10∆) was 1.44 ± 0.045, the protein stability index (pdr5∆) was 1.8 ± 0.051 and the protein stability index (san1∆) was 1.85 ± 0.098. For the same sequence, the protein stability index (ubr1∆) was 1.31 ± 0.03.
GIIEPSLKALASKYNCD [RPL40A] showed a protein stability index (doa10∆) of 3.44 ± 0.17, a protein stability index (pdr5∆) of 3.27 ± 0.23 and a protein stability index (san1∆) of 3.09 ± 0.085. The protein stability index (ubr1∆) was 3.19 ± 0.2.
GIKAKHDKNIQKLLKQL [ISW2] showed a protein stability index (doa10∆) of 2.41 ± 0.048, a protein stability index (pdr5∆) of 2.45 ± 0.048 and a protein stability index (san1∆) of 2.45 ± 0.051. The protein stability index (ubr1∆) was 2.79 ± 0.033.
GIKVLPETCLFVSYFGK [YML103C/NUP188] gave a protein stability index (doa10∆) of 2.7 ± 0.055, a protein stability index (pdr5∆) of 2.42 ± 0.038 and a protein stability index (san1∆) of 2.44 ± 0.074. The protein stability index (ubr1∆) was 2.68 ± 0.039.
With GIKYHATPPLKRFKDME [SMC1] the protein stability index (doa10∆) was 3.1 ± 0.1, the protein stability index (pdr5∆) was 3.25 ± 0.075 and the protein stability index (san1∆) was 2.95 ± 0.07. It also gave a protein stability index (ubr1∆) of 3.25 ± 0.076.
Sequence GILLETISVPQIRDVME [RRP6] has a protein stability index (doa10∆) of 2.74 ± 0.072, a protein stability index (pdr5∆) of 2.56 ± 0.06 and a protein stability index (san1∆) of 2.89 ± 0.056. For the same sequence, the protein stability index (ubr1∆) was 2.64 ± 0.067.
For GILYMGQGEQVDDVLET [RPN1], the protein stability index (doa10∆) was 1.23 ± 0.16, the protein stability index (pdr5∆) was 1.19 ± 0.15 and the protein stability index (san1∆) was 1.07 ± 0.18. The protein stability index (ubr1∆) was 1.23 ± 0.11.
With GINNLSEIWDVSRGQSA [PRP8] the protein stability index (doa10∆) was 3 ± 0.13, the protein stability index (pdr5∆) was 2.67 ± 0.12 and the protein stability index (san1∆) was 2.74 ± 0.29. For the same sequence, the protein stability index (ubr1∆) was 2.26 ± 0.073.
Sequence GINSKSGKPFIAGFDLI [PUP3] has a protein stability index (doa10∆) of 3.11 ± 0.089, a protein stability index (pdr5∆) of 3.29 ± 0.094 and a protein stability index (san1∆) of 3.3 ± 0.13. It also gave a protein stability index (ubr1∆) of 3.06 ± 0.081.
GISEVQARKSKSVSFYA [RPT5] showed a protein stability index (doa10∆) of 3.4 ± 0.064, a protein stability index (pdr5∆) of 3.39 ± 0.093 and a protein stability index (san1∆) of 3.37 ± 0.056. It also gave a protein stability index (ubr1∆) of 3.31 ± 0.063.
In the case of GISMFDYISGISVGLYD [SKI6], the protein stability index (doa10∆) is reported as 2.02 ± 0.092, the protein stability index (pdr5∆) is reported as 2.02 ± 0.069 and the protein stability index (san1∆) is reported as 2.03 ± 0.069. The protein stability index (ubr1∆) was 2.1 ± 0.052.
Work on GISSTLVSANNDNNSPH [YLR018C/POM34] yielded a protein stability index (doa10∆) of 2.62 ± 0.051, a protein stability index (pdr5∆) of 2.89 ± 0.06 and a protein stability index (san1∆) of 3.01 ± 0.058. The protein stability index (ubr1∆) was 2.96 ± 0.067.
For GISVPFHSTYLMNGVKP [FAS1], the protein stability index (doa10∆) was 1.46 ± 0.042, the protein stability index (pdr5∆) was 1.51 ± 0.04 and the protein stability index (san1∆) was 1.27 ± 0.074. It also gave a protein stability index (ubr1∆) of 1.39 ± 0.027.
Sequence GKEFGDVSVKMGNTKVH [RRP45] has a protein stability index (doa10∆) of 1.38 ± 0.073, a protein stability index (pdr5∆) of 1.53 ± 0.083 and a protein stability index (san1∆) of 2.25 ± 0.069. For the same sequence, the protein stability index (ubr1∆) was 1.95 ± 0.1.
For GKISKPRFLNKQERSKQ [PRP28], the protein stability index (doa10∆) was 1.9 ± 0.088, the protein stability index (pdr5∆) was 2.46 ± 0.13 and the protein stability index (san1∆) was 3.33 ± 0.11. For the same sequence, the protein stability index (ubr1∆) was 2.13 ± 0.088.
Sequence GKKASLNVGNVLPLGSV [RPL2A] has a protein stability index (doa10∆) of 2.4 ± 0.051, a protein stability index (pdr5∆) of 2.29 ± 0.057 and a protein stability index (san1∆) of 2.51 ± 0.078. For the same sequence, the protein stability index (ubr1∆) was 2.56 ± 0.042.
Sequence GKLEVPGYVDIVKTSSG [RPS19A] has a protein stability index (doa10∆) of 3.38 ± 0.15, a protein stability index (pdr5∆) of 2.85 ± 0.092 and a protein stability index (san1∆) of 3.19 ± 0.07. The protein stability index (ubr1∆) was 3.2 ± 0.06.
With GKLGQIDYALTAVKQGV [PRE8] the protein stability index (doa10∆) was 1.36 ± 0.21, the protein stability index (pdr5∆) was 1.93 ± 0.13 and the protein stability index (ubr1∆) was 2.54 ± 0.099.
For GKLISNLSSTPMETLLS [YML031W/NDC1], the protein stability index (doa10∆) was 2.61 ± 0.11, the protein stability index (pdr5∆) was 2.92 ± 0.12 and the protein stability index (san1∆) was 2.51 ± 0.11. For the same sequence, the protein stability index (ubr1∆) was 2.5 ± 0.063.
Sequence GKMVRAQDVALAKKWFL [PRP8] has a protein stability index (doa10∆) of 2.34 ± 0.12, a protein stability index (pdr5∆) of 2.51 ± 0.14 and a protein stability index (san1∆) of 2.57 ± 0.23. The protein stability index (ubr1∆) was 3.05 ± 0.24.
With GLDQSRIPFSERKLKFS [FAS1] the protein stability index (doa10∆) was 1.81 ± 0.061, the protein stability index (pdr5∆) was 1.29 ± 0.059 and the protein stability index (san1∆) was 1.11 ± 0.085. It also gave a protein stability index (ubr1∆) of 1.12 ± 0.048.
In the case of GLELSNFKSYRGVTKVG [SMC1], the protein stability index (doa10∆) is reported as 3.04 ± 0.094, the protein stability index (pdr5∆) is reported as 3.09 ± 0.14 and the protein stability index (san1∆) is reported as 2.55 ± 0.15. For the same sequence, the protein stability index (ubr1∆) was 2.45 ± 0.12.
In the case of GLESQIQEIKESVELPL [RPT2], the protein stability index (doa10∆) is reported as 2.11 ± 0.087, the protein stability index (pdr5∆) is reported as 2.3 ± 0.073 and the protein stability index (san1∆) is reported as 2.48 ± 0.067. It also gave a protein stability index (ubr1∆) of 2.83 ± 0.072.
